Reference: article PMC8212047 (Frontiers in Immunology, 2021)

B1: RGN10933 (antibody, V domains shown)
VH: QVQLVESGGGLVKPGGSLRLSCAASGFTFSDYYMSWIRQAPGKGLEWVSYITYSGSTIYYADSVKGRFTISRDNAKSSLYLQMNSLRAEDTAVYYCARDRGTTMVPFDYWGQGTLVTVSS
VL: DIQMTQSPSSLSASVGDRVTITCQASQDITNYLNWYQQKPGKAPKLLIYAASNLETGVPSRFSGSGSGTDFTFTISGLQPEDIATYYCQQYDNLPLTFGGGTKVEIK
B2: RGN10987 (antibody, V domains shown)
VH: QVQLVESGGGVVQPGRSLRLSCAASGFTFSNYAMYWVRQAPGKGLEWVAVISYDGSNKYYADSVKGRFTISRDNSKNTLYLQMNSLRTEDTAVYYCASGSDYGDYLLVYWGQGTLVTVSS
VL: QSALTQPASVSGSPGQSITISCTGTSSDVGGYNYVSWYQQHPGKAPKLMIYDVSKRPSGVSNRFSGSKSGNTASLTISGLQSEDEADYYCNSLTSISTWVFGGGTKLTVL
B3: CB6 (antibody, V domains shown)
VH: EVQLVESGGGLVQPGGSLRLSCAASGFTVSSNYMSWVRQAPGKGLEWVSVIYSGGSTFYADSVKGRFTISRDNSMNTLFLQMNSLRAEDTAVYYCARVLPMYGDYLDYWGQGTLVTVSS
VL: not shown
notes: source: produced and purified as previously described (29)

Target: SARS-CoV-2 RBD (Wuhan-1) RBD-FC fusion protein (SARS-CoV-2, UniProt P0DTC2)
Assay: SPR
Settings: both partners purified

| Binder | binding result |
| --- | --- |
| B1 | binds |
| B2 | binds |
| B3 | binds |
